Reference: patent US20230212306A1 (Daiichi Sankyo, published 2023)

T1: human TLR7-Flag-His×6 (human TLR7 variant 2), expressed in Ba/F3 cells together with human Unc93B1-HA×2 (human, UniProt Q9NYK1 27-1049)
T1 construct: Cells were permeabilised with 0.1% saponin before staining; also called hTLR7-Flag-His×6; not shown: Flag-His×6 tag added to the C-terminus
T1 sequence: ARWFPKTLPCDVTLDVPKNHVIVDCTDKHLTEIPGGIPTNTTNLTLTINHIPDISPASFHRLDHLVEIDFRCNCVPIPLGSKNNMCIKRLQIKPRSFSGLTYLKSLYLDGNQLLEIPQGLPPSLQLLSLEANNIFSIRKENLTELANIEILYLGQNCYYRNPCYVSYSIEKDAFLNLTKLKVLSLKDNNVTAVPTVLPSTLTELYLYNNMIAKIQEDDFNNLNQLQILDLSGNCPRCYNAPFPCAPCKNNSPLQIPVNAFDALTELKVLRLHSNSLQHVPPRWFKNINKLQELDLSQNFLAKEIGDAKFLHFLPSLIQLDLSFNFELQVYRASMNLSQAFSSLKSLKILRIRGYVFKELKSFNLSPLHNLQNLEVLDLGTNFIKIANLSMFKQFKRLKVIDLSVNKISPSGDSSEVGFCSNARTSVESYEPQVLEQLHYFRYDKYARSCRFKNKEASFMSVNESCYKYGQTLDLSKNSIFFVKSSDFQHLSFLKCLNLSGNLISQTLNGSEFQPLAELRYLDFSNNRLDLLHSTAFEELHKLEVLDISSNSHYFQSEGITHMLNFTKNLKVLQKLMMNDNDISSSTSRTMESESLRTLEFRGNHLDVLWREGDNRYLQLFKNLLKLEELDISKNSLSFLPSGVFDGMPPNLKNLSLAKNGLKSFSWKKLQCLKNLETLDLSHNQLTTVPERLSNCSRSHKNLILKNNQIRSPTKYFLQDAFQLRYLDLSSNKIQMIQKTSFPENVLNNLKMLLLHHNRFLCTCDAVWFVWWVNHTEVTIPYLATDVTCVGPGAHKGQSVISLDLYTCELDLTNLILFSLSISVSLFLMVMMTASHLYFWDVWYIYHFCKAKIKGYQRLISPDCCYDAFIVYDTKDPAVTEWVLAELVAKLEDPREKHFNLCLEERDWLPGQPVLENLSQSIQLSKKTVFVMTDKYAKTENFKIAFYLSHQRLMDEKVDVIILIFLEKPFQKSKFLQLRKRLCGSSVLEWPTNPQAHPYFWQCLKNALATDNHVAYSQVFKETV


What follows are binders tested against T1, human TLR7-Flag-His×6 (human TLR7 …) (assay: flow cytometry (MFI), antibody dilution series on saponin-permeabilised Ba/F3 cells expressing human TLR7-Flag-His×6/hUnc93B1-HA×2).
Procedure: A Ba/F3 cell line expressing human TLR7-Flag-His×6/hUnc93B1-HA×2 was subjected to membrane permeation with 0.1% Saponin and stained using the dilution series of chimeric AT01 antibody, NB7 antibody, and FAN2 antibody at the antibody concentrations obtained in Example 4, and the secondary antibody, Goat anti-human IgG Fc-PE (eBioscience). The binding activity of each antibody was evaluated by comparing the MFI based on flow cytometry analysis.

Binder | binding result
cAT01 antibody (antibody, human IgG1, V domains shown, Mouse variable regions on human IgG1 / human kappa constant regions; also called chimeric AT01 antibody; AT01 chimeric anti-human TLR7 antibody) VH: QVQLQQPGAELVKPGASVNLSCKASGYTFTNNWLHWVKQRPGRGLEWIGDIYPSNGRTNYNEQFKTKATLTVDKSSSTAYMQLSSLTSEDSAVYFCARERGYFDYWGQGTALTVSS VL: DIQMTQSPSSLSTSLGGKVTITCKASQDINKYIAWYQHKPGKGPRLLIHYTSTLQPGIPSRFSGSGSGRDYSFSISNLEPEDIATYYCLQYDYLLTFGAGTKLELKR | binds
cNB7 antibody (antibody, human IgG1, V domains shown, Mouse variable regions on human IgG1 / human kappa constant regions; also called chimeric NB7 antibody; NB7 chimeric anti-human TLR7 antibody) VH: DVQLQESGPGLVKPSQSLSLTCTVTGYSITSDYAWNWIRQFPGNKLEWMGHISYRGNTNYNPSLKSRISITRDTSKNQFFLQLNSVTTEDTATYYCASWNYYGYVDYAMDYWGQGTSVTVSS VL: DIQMTQTPSSLSASLGDRVTISCRASQDISNYLNWYQQKPDGTVKLLIYYTSRLHSGVPSRFSGSGSGTDYSLTINNLEQEDIATYFCQQGDTFPTFGGGTKLEIKR | binds
cFAN2 antibody (antibody, human IgG1, V domains shown, Mouse variable regions on human IgG1 / human kappa constant regions; also called chimeric FAN2 antibody; FAN2 chimeric anti-human TLR7 antibody) VH: QVQLKESGPGLVAPSQSLSITCTVSGFSLTGYGVNWVRQPPGKGLEWLGMIWGDGSTDYNSALKSRLSIRKDNSKSQVFLKMNSLQTDDTARYYCARDKGYDGYYYAMDYWGQGTSVTVSS VL: DIQMTQSPASLSASVGETVTITCRASENIYSYLAWYQQKQGKSPQLLVYDAKTLAEGVPSRFSGSGSGTQFSLKINSLQPEDFGSYYCQHHYGIPYTFGGGTKLEIKR | binds
